Assay [1] deals with T1, Jagged-2 receptor ectodomain (Homo sapiens (assumed), UniProt Q9Y219).
T1 construct: Jagged-2 ectodomain; it may be an Fc fusion like the Notch proteins; also called J2
The assay is described as follows: ELISA; single-point Fab-ELISA for specificity: proteins immobilised at 5 ug/ml on MaxiSorp plates; purified Fab at 1 uM; detected with HRP-conjugated anti-HIS antibody, Abs450. Particulars: both partners purified. On the technique in general: An ELISA detects its analyte on a solid surface through an enzyme-linked reagent.

Assay [2] concerns the target T2, recombinant Fc-tag-fused human Notch-1 extracellular domain (Homo sapiens, UniProt P46531).
T2 construct: Notch-1, human, extracellular domain; No catalogue number and no residue limits are printed; also called N1; source: bought: R&D Systems
The assay is described as follows: ELISA; multi-point Fab-ELISA: target immobilised at 5 ug/ml on MaxiSorp plates; purified Fab 0.01 nM-1 uM in PT for 30 min; detected with HRP-conjugated anti-HIS antibody; EC50 from a one-site specific-binding fit. The settings on record: both partners purified.
T2 sequence (P46531 19-1735): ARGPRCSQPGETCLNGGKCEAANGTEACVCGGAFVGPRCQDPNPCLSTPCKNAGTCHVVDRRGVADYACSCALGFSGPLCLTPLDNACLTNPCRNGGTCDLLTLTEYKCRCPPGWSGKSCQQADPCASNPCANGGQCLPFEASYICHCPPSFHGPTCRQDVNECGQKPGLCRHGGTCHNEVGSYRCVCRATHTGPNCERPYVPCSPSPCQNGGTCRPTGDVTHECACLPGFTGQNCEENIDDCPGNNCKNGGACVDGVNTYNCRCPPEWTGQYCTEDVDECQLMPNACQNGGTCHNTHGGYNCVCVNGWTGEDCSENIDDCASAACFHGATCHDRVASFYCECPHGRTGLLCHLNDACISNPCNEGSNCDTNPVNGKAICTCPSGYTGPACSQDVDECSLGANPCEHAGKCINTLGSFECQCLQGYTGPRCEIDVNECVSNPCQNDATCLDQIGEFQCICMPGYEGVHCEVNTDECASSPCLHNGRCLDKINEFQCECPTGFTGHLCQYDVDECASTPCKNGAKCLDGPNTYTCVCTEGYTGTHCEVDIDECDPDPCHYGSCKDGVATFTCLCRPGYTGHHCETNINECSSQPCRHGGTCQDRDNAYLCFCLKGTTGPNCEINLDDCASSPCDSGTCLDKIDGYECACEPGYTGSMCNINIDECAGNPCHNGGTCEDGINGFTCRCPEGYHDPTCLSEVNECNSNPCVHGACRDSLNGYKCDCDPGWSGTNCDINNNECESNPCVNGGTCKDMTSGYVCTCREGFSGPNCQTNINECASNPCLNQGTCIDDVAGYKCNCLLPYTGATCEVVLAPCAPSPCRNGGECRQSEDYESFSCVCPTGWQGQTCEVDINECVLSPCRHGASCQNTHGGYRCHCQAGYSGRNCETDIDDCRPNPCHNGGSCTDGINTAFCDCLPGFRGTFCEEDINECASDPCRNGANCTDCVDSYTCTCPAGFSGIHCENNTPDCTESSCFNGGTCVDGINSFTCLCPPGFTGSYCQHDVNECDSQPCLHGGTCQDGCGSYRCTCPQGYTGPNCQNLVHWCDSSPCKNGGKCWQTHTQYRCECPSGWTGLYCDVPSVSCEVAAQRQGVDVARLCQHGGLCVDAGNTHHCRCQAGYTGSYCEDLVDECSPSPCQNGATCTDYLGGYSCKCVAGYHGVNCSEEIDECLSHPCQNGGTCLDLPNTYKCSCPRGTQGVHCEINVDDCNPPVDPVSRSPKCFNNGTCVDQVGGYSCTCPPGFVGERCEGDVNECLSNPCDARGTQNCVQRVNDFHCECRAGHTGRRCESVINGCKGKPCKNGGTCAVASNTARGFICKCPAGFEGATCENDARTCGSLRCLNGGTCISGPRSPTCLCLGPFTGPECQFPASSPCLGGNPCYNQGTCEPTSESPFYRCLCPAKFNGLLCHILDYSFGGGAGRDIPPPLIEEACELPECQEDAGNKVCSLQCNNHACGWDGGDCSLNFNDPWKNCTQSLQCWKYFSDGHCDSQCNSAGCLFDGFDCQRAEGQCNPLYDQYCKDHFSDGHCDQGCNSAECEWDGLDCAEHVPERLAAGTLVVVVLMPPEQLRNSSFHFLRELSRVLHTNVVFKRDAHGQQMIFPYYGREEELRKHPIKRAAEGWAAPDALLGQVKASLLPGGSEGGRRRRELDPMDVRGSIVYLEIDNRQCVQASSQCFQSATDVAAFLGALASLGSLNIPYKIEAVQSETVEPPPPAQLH

Assay [3] has as its target T2, recombinant Fc-tag-fused human Notch-1 …. Nature of the assay: BLI; Octet RED384; Fabs immobilised on amine-reactive generation-2 or anti-Fab CH1 biosensors, target proteins in solution at three or more concentrations; 25 C, PBS; global 1:1 fit; apparent KD (Fc-Notch proteins may dimerize, avidity). Particulars: both partners purified. On the technique in general: In BLI a coated tip is dipped into the sample, and binding shifts an interference pattern.

The target in assay [4] is T3, recombinant Fc-tag-fused human Notch-1 extracellular domain (Homo sapiens, UniProt P46531).
T3 construct: Notch-1, human, extracellular domain; the R&D Systems product may hold only part of the ectodomain (surmise); also called N1; Fc-Notch; source: bought: R&D Systems
The assay is described as follows: BLI; Fabs immobilised on amine-reactive generation-2 or anti-Fab CH1 biosensors, target proteins in solution at at least three concentrations; 25°C, PBS; global fit to a 1:1 binding model; apparent constants (Fc fusions may dimerize). Particulars: both partners purified.
T3 sequence (P46531 19-1735): as above

Assay [5] has as its target T2, recombinant Fc-tag-fused human Notch-1 …. Nature of the assay: ELISA; phage-ELISA: Notch-1 and control proteins immobilised at 5 ug/ml on MaxiSorp plates; phage-displayed Fab at 10^12 PFU/ml in PBT for 30 min; detected with HRP-conjugated anti-M13 antibody, Abs450. The settings on record: one partner purified.

Experimental findings from PMC9381698, “Generation of synthetic antibody fragments with optimal complementarity determining region lengths for Notch-1 recognition” (Frontiers in Microbiology, 2022) are described below.

T1 sequence (Q9Y219 27-1080): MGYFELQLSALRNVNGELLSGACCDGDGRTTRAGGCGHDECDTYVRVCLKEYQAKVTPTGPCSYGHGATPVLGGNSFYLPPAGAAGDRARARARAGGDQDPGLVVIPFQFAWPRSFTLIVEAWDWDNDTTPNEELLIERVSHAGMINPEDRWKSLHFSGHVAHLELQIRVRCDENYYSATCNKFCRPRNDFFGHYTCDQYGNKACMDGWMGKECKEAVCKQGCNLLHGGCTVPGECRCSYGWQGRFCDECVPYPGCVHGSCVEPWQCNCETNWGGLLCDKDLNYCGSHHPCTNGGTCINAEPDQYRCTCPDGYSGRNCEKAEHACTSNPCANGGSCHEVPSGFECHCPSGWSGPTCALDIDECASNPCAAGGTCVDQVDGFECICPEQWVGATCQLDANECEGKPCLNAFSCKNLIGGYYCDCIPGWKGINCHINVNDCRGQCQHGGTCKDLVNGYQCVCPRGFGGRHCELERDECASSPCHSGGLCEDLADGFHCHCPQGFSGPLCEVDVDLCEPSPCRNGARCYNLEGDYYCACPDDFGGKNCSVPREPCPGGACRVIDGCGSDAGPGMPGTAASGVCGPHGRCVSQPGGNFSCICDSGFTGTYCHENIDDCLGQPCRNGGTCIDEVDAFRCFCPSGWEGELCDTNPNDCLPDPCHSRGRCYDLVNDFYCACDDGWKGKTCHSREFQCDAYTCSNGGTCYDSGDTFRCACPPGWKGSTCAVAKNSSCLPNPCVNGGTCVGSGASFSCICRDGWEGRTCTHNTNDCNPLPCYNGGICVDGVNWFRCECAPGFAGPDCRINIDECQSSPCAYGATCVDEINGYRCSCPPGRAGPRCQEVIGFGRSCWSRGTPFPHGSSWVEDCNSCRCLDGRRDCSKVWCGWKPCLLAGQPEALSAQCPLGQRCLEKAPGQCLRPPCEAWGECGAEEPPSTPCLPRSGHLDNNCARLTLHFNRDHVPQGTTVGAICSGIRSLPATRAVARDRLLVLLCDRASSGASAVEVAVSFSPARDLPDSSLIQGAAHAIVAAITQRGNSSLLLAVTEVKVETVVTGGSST

B1: Fab N1/F/R1 (purified soluble Fab) (Fab, V domains shown)
VH: EVQLVESGGGLVQPGGSLRLSCAASGFNIYSSYIHWVRQAPGKGLEWVASIYPYYGSTYYADSVKGRFTISADTSKNTAYLQMNSLRAEDTAVYYCARYAHFSVYGAMDYWGQGTLVTVSS
VL: DIQMTQSPSSLSASVGDRVTITCRASQSVSSAVAWYQQKPGKAPKLLIYSASSLYSGVPSRFSGSRSGTDFTLTISSLQPEDFATYYCQQWYGGYALFTFGQGTKVEIK
notes: light chain on the modified trastuzumab framework of Library-F (Persson et al., 2013); CDRs L1 and L2 fixed; clone reconstructed from NGS information; Fab heavy chain on the modified trastuzumab framework of Library-F; medium CDRH3 length; The Fab is detected by an anti-HIS antibody; source: E. coli BL21, purified (Protein-L resin)
Take B1: the binding result in assay [1] is reported as “binds”. Also, the EC50 (commonly the midpoint of the concentration-response curve) in assay [2] was approximately 4 nM. Also, the Kd in assay [3] was 1.98 nM.

B2: Fab N1/F/R1 (Fab, V domains shown)
VH: EVQLVESGGGLVQPGGSLRLSCAASGFNIYSSYIHWVRQAPGKGLEWVASIYPYYGSTYYADSVKGRFTISADTSKNTAYLQMNSLRAEDTAVYYCARYAHFSVYGAMDYWGQGTLVTVSS
VL: DIQMTQSPSSLSASVGDRVTITCRASQSVSSAVAWYQQKPGKAPKLLIYSASSLYSGVPSRFSGSRSGTDFTLTISSLQPEDFATYYCQQWYGGYALFTFGQGTKVEIK
notes: Library-F rare Fab reconstructed from NGS information, modified trastuzumab framework; Library-F rare Fab reconstructed from NGS information, modified trastuzumab framework, CDRs L1 and L2 fixed; The Fab has a His tag (detected with anti-HIS antibody and biosensors); Library-F framework: Persson et al., 2013; source: E. coli BL21, purified (Protein-L resin)
B2: in assay [4], the koff (commonly a measure of how fast the partners let go of each other) stood at 0.000154 s⁻¹ and the kon (usually the second-order rate constant of association) amounted to 76400 M⁻¹ s⁻¹.

B3: phage-displayed Fab N1/F/R2 (Fab, V domains shown)
VH: EVQLVESGGGLVQPGGSLRLSCAASGFNFSSSSIHWVRQAPGKGLEWVASIYSYYGYTYYADSVKGRFTISADTSKNTAYLQMNSLRAEDTAVYYCARSWWGGSWYAALDYWGQGTLVTVSS
VL: DIQMTQSPSSLSASVGDRVTITCRASQSVSSAVAWYQQKPGKAPKLLIYSASSLYSGVPSRFSGSRSGTDFTLTISSLQPEDFATYYCQQWWSLITFGQGTKVEIK
notes: as the light chain of m15; as the heavy chain of m15; Reconstructed by Kunkel mutagenesis in the MBP phagemid
Turning to B3, the “fold weaker phage-ELISA signal than the high-frequency Fabs” value in assay [5] was approximately 4 fold.

B4: Fab N1/F/1 (purified soluble Fab) (Fab, V domains shown)
VH: EVQLVESGGGLVQPGGSLRLSCAASGFNISSYSMHWVRQAPGKGLEWVAYISSSYGSTYYADSVKGRFTISADTSKNTAYLQMNSLRAEDTAVYYCARSWALDYWGQGTLVTVSS
VL: DIQMTQSPSSLSASVGDRVTITCRASQSVSSAVAWYQQKPGKAPKLLIYSASSLYSGVPSRFSGSRSGTDFTLTISSLQPEDFATYYCQQYWGPITFGQGTKVEIK
notes: light chain on the modified trastuzumab framework of Library-F (Persson et al., 2013); CDRs L1 and L2 fixed; Fab heavy chain on the modified trastuzumab framework of Library-F; short CDRH3; The Fab is detected by an anti-HIS antibody; source: E. coli BL21, purified (Protein-L resin)
Turning to B4, in assay [2], the EC50 was approximately 4 nM. Besides, in assay [3], the Kd was 0.45 ± 0.05 nM.

B5: Fab N1/F/1 (Fab, V domains shown)
VH: EVQLVESGGGLVQPGGSLRLSCAASGFNISSYSMHWVRQAPGKGLEWVAYISSSYGSTYYADSVKGRFTISADTSKNTAYLQMNSLRAEDTAVYYCARSWALDYWGQGTLVTVSS
VL: DIQMTQSPSSLSASVGDRVTITCRASQSVSSAVAWYQQKPGKAPKLLIYSASSLYSGVPSRFSGSRSGTDFTLTISSLQPEDFATYYCQQYWGPITFGQGTKVEIK
notes: Library-F Fab on a modified trastuzumab framework; Library-F Fab on a modified trastuzumab framework, CDRs L1 and L2 fixed; The Fab has a His tag (detected with anti-HIS antibody and biosensors); Library-F framework: Persson et al., 2013; source: E. coli BL21, purified (Protein-L resin)
With B5, in assay [4], the off-rate (koff) came to 0.000118 s⁻¹ and the kon came to 296000 M⁻¹ s⁻¹.

B6: Fab N1/F/R3 (purified soluble Fab) (Fab, V domains shown)
VH: EVQLVESGGGLVQPGGSLRLSCAASGFNIYSSYMHWVRQAPGKGLEWVASIYPYYGYTSYADSVKGRFTISADTSKNTAYLQMNSLRAEDTAVYYCARYFSYGPFYYGSGLDYWGQGTLVTVSS
VL: DIQMTQSPSSLSASVGDRVTITCRASQSVSSAVAWYQQKPGKAPKLLIYSASSLYSGVPSRFSGSRSGTDFTLTISSLQPEDFATYYCQQGFSLITFGQGTKVEIK
notes: as for B1
B6: the binding result in assay [1] is on record as “binds”. For the same molecule, the EC50 in assay [2] came out at 37 nM. In assay [3], the Kd is 6.6 nM.

B7: Fab N1/F/R3 (Fab, V domains shown)
VH: EVQLVESGGGLVQPGGSLRLSCAASGFNIYSSYMHWVRQAPGKGLEWVASIYPYYGYTSYADSVKGRFTISADTSKNTAYLQMNSLRAEDTAVYYCARYFSYGPFYYGSGLDYWGQGTLVTVSS
VL: DIQMTQSPSSLSASVGDRVTITCRASQSVSSAVAWYQQKPGKAPKLLIYSASSLYSGVPSRFSGSRSGTDFTLTISSLQPEDFATYYCQQGFSLITFGQGTKVEIK
notes: as for B2
As for B7, in assay [4], the off-rate constant (koff) worked out at 0.000484 s⁻¹ and the kon came to 85300 M⁻¹ s⁻¹.

B8: phage-displayed Fab N1/F/R3 (Fab, V domains shown)
VH: EVQLVESGGGLVQPGGSLRLSCAASGFNIYSSYMHWVRQAPGKGLEWVASIYPYYGYTSYADSVKGRFTISADTSKNTAYLQMNSLRAEDTAVYYCARYFSYGPFYYGSGLDYWGQGTLVTVSS
VL: DIQMTQSPSSLSASVGDRVTITCRASQSVSSAVAWYQQKPGKAPKLLIYSASSLYSGVPSRFSGSRSGTDFTLTISSLQPEDFATYYCQQGFSLITFGQGTKVEIK
notes: as the light chain of m16; as the heavy chain of m16; Reconstructed by Kunkel mutagenesis in the MBP phagemid
B8: in assay [5], the “fold weaker phage-ELISA signal than the high-frequency Fabs” value was approximately 10 fold.
